Data on one molecule can be found in patent US20130253037A1 (PURDUE RESEARCH FOUNDATION, published 2013).

This assay concerns the target T1, Aurora A kinase (endogenous, MDA-MB-231 cells) (human, UniProt O14965 1-403).
T1 sequence (looked up): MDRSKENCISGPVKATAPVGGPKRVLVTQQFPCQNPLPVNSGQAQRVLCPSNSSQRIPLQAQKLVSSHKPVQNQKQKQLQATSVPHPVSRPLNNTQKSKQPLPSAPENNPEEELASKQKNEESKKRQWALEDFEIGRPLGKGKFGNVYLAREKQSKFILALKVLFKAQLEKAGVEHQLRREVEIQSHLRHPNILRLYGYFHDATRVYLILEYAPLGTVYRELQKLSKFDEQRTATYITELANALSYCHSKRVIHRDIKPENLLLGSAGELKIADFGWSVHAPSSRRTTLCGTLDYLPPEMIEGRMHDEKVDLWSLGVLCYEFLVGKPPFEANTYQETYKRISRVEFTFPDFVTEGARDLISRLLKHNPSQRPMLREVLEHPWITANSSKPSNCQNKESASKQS
Kind of assay: HA-tagged truncated LIMK2 mutants expressed in MDA cells, isolated and analyzed for Aurora A binding. On the procedure:
LIMK2 contains two LIM domains (12-129), a PDZ domain (152-236), an S/P domain (240-328) and a kinase domain (331-601) (Scott and Olson (2007) J. Mol. Med. 85, 555-568). […] These mutants were transiently expressed in MDA cells, isolated and analyzed for Aurora A binding.
We next investigated whether association of LIM domains of LIMK2 is sufficient for Aurora A stabilization. […] After 30 h, cells were lysed, HA-tagged LIMK2 proteins were isolated and probed for Aurora A binding. […] After 30 h, cells were lysed, HA-tagged LIMK2 proteins were isolated and probed for Aurora A binding.

B1: HA-tagged (1-145) LIMK2 (other, not shown: small tags and cut ends)
chain: MSALAGEDVWRCPGCGDHIAPSQIWYRTVNETWHGSCFRCSECQDSLTNWYYEKDGKLYCPKDYWGKFGEFCHGCSLLMTGPFMVAGEFKYHPECFACMSCKVIIEDGDAYALVQHATLYCGKCHNEVVLAPMFERLSTESVQEQ
notes: also called truncated LIMK2 mutant containing two LIM domains
As for B1, the binding result is “binds”.
